Assay results published in patent US20250114463A1, “LIVER-TARGETED DRUG AND USE THEREOF” (HANMI PHARM. CO., LTD., priority 2021, published 2025).
Bridges are numbered along the chain shown (N, C = ends). Where no end group is shown, it is not given here. [ ]: non-standard residue; d: D form. The star is where a group is joined. Acetyl(2-(4-imidazolyl)) = O=C(Cc1c[nH]cn1)*; Aib = CC(C)(N)C(=O)O

T1: human GIP receptor (human, UniProt P48546 22-466)
T1 sequence (looked up): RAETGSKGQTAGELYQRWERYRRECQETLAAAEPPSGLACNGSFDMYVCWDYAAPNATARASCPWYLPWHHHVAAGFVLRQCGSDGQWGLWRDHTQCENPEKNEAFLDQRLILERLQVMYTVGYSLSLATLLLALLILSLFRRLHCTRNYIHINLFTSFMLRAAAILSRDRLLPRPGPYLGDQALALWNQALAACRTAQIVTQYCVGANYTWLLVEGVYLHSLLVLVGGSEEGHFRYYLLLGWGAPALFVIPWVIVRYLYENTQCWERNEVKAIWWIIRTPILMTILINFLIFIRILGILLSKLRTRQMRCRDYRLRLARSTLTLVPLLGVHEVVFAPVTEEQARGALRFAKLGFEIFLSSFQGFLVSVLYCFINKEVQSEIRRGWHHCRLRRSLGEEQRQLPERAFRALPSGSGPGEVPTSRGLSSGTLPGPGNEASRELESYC


Columns and labels:
Test in all cases: cell-based or functional assay
human GLP-1 receptor = human GLP-1 receptor (human, UniProt P43220 24-463)
human GIP receptor = biological target: T1, human GIP receptor
human GCG receptor = human GCG receptor (human, UniProt P47871 26-477)
Sequence of human GCG receptor (P47871 26-477): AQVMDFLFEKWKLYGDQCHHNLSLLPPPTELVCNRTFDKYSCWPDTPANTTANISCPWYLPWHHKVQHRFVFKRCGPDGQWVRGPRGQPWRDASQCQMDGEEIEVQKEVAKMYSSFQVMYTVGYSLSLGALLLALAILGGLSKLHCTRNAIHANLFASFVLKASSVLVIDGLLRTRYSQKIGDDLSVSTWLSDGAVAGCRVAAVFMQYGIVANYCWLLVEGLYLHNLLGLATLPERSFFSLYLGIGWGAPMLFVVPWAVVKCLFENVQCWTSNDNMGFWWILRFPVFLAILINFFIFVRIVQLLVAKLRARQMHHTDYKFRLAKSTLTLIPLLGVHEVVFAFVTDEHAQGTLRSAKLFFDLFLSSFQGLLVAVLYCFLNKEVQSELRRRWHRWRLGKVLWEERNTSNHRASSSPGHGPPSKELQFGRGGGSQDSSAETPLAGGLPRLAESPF

Binder	in vitro Activity Compared to Native Peptide (%), vs GLP-1 (human GLP-1 receptor) [%]	in vitro Activity Compared to Native Peptide (%), vs GIP (human GIP receptor) [%]	in vitro Activity Compared to Native Peptide (%), vs Glucagon (human GCG receptor) [%]
HXQGTFTSDKSKYLDECAAQDFVQWLLDGGPSSGAPPPS (HELM PEPTIDE1{H.[Aib].Q.G.T.F.T.S.D.K.S.K.Y.L.D.E.C.A.A.Q.D.F.V.Q.W.L.L.D.G.G.P.S.S.G.A.P.P.P.S.[am]}$$$$V2.0; N-terminus assumed; SMILES CC(C)C[C@H](NC(=O)[C@H](CC(C)C)NC(=O)[C@H](Cc1c[nH]c2ccccc12)NC(=O)[C@H](CCC(N)=O)NC(=O)[C@@H](NC(=O)[C@H](Cc1ccccc1)NC(=O)[C@H](CC(=O)O)NC(=O)[C@H](CCC(N)=O)NC(=O)[C@H](C)NC(=O)[C@H](C)NC(=O)[C@H](CS)NC(=O)[C@H](CCC(=O)O)NC(=O)[C@H](CC(=O)O)NC(=O)[C@H](CC(C)C)NC(=O)[C@H](Cc1ccc(O)cc1)NC(=O)[C@H](CCCCN)NC(=O)[C@H](CO)NC(=O)[C@H](CCCCN)NC(=O)[C@H](CC(=O)O)NC(=O)[C@H](CO)NC(=O)[C@@H](NC(=O)[C@H](Cc1ccccc1)NC(=O)[C@@H](NC(=O)CNC(=O)[C@H](CCC(N)=O)NC(=O)C(C)(C)NC(=O)[C@@H](N)Cc1c[nH]cn1)[C@@H](C)O)[C@@H](C)O)C(C)C)C(=O)N[C@@H](CC(=O)O)C(=O)NCC(=O)NCC(=O)N1CCC[C@H]1C(=O)N[C@@H](CO)C(=O)N[C@@H](CO)C(=O)NCC(=O)N[C@@H](C)C(=O)N1CCC[C@H]1C(=O)N1CCC[C@H]1C(=O)N1CCC[C@H]1C(=O)N[C@@H](CO)C(N)=O) [triple agonist of SEQ ID NO: 41]	34.3	< 0.1	< 0.1
Y[Aib]QGTFTSDYSKYLDEKRAKEFVQWLLDHHPSSGQPPPSC-NH2 (bridge 16-20) [triple agonist of SEQ ID NO: 42]	33.9	7.8	206
Y[Aib]QGTFTSDYSKYLDEKRAKEFVQWLLDHHCSSGQPPPS-NH2 (bridge 16-20) [triple agonist of SEQ ID NO: 43]	12.6	3.7	88.4
HGQGTFTSDCSKQLDGQAAQEFVAWLLAGGPSSGAPPPS (not fully specified (C-terminus)) [triple agonist of SEQ ID NO: 44]	1.3	< 0.1	< 0.1
H[Aib]QGTFTSDVSSYLLGQQQKEFIAWLVKGGGPSSGAPPPSC-NH2 [triple agonist of SEQ ID NO: 5]	42.1	< 0.1	< 0.1
HGQGTFTSDCSKYMDGQAAQDFVAWLLAGGPSSGAPPPS (not fully specified (C-terminus)) [triple agonist of SEQ ID NO: 45]	6.6	< 0.1	< 0.1
HGQGTFTSDCSKYLDEQHAQEFVAWLLAGGPSSGAPPPS (not fully specified (C-terminus)) [triple agonist of SEQ ID NO: 46]	1.4	< 0.1	< 0.1
HGQGTFTSDCSKYLDGQRAQEFVAWLLAGGPSSGAPPPS (not fully specified (C-terminus)) [triple agonist of SEQ ID NO: 47]	2.4	< 0.1	< 0.1
HGQGTFTSDCSKYLDGQRAQDFVNWLLAGGPSSGAPPPS (not fully specified (C-terminus)) [triple agonist of SEQ ID NO: 48]	1.5	< 0.1	< 0.1
[Acetyl(2-(4-imidazolyl))][Aib]QGTFTSDYSICMDEIHQKDFVNWLLNTK (bridge 16-20; not fully specified (C-terminus)) [triple agonist of SEQ ID NO: 49]	29.8	3.3	< 0.1
H[Aib]QGTFTSDYSKYLDEKRAKEFVQWLLDHHPSSGQPPPSC-NH2 (bridge 16-20) [triple agonist of SEQ ID NO: 50]	67.4	2.7	50.5
H[Aib]QGTFTSDYSKYLDEKRQKEFVQWLLNTC (bridge 16-20; not fully specified (C-terminus)) [triple agonist of SEQ ID NO: 51]	14.4	0.1	2
H[Aib]QGTFTSDYSKYLDEKRQKEFVQWLLDTC (bridge 16-20; not fully specified (C-terminus)) [triple agonist of SEQ ID NO: 52]	44.1	0.3	7.5
H[Aib]EGTFTSDYSIAMDEIHQKDFVNWLLAQC (bridge 16-20; not fully specified (C-terminus)) [triple agonist of SEQ ID NO: 53]	161	1.3	8.4
H[Aib]EGTFTSDYSIAMDEIHQKDFVDWLLAEC (bridge 16-20; not fully specified (C-terminus)) [triple agonist of SEQ ID NO: 54]	30.6	0.1	1.4
